Laboratory results taken from patent publication US20220267438A1 (Janssen / Centocor, published 2022).
Where two headings read alike, the source gives them in different places.

Columns and labels:
[1] = target: T1, cynomolgus monkey CD3 on peripheral blood mononuclear cells (cynomolgus monkey, UniProt Q95LI5 22-198); assay: flow cytometry, cynomolgus monkey PBMCs
T1 construct: whole, on cells; also called cyno CD3
Method: The CD3-binding arm (i.e., CD3B376) binds to cynomolgus monkey CD3. Briefly, binding was measured by flow cytometry after incubating human and cynomolgus monkey peripheral blood mononuclear cells (PBMCs) with GCDB381 (i.e., CD3B376 Fab in bivalent IgG1-AAS antibody), CD3B891 (i.e., CD3B376×Null, IgG1-AAS bispecific antibody), or null control.

[2] = target: T2, human CD3 (CD3ε of the TCR/CD3 complex) on primary human pan T cells (human, UniProt P07766 23-207); assay: flow cytometry on T cells of donor D203727, with curve extrapolation
T2 construct: whole, on cells; On T cells CD3ε stands in the whole TCR/CD3 complex
T2 sequence (P07766 23-207, one chain of several): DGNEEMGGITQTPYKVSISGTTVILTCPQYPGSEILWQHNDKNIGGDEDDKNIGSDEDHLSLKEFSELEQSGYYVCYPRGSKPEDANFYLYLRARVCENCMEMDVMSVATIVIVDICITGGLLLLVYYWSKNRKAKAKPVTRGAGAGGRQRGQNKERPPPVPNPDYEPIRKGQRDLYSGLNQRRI
Method: (§1) Flow cytometry was used to evaluate the CD3 arm (i.e., CD3B376) binding of BGCB491 to CD3⁺ pan T cells from 7 different healthy human. Cell-based EC₅₀ for CD3B376 could not be determined due to lack of saturation kinetics at 1 hour (FIG. 26). Bioinformatic extrapolation was performed (FIG. 27) using the CD3B376×Null control antibody (i.e., GCDB381) molecule, which saturates within 2 μM top concentration dose-response to constrain the top of the non-linear regression curve to generate a full curve that enables estimation of ECₓ values (Table 21).

[3] = target: T2, human CD3 (CD3ε of the TCR/CD3 complex) …; assay: flow cytometry on T cells of donor D327645, with curve extrapolation
Method: as §1

[4] = target: T2, human CD3 (CD3ε of the TCR/CD3 complex) …; assay: flow cytometry on T cells of donor D316144, with curve extrapolation
Method: as §1

[5] = target: T3, human GPRC5D (G-protein coupled receptor family C group 5 member D) on cells (human, UniProt Q9NZD1 1-345); assay: cell binding, H929 and MM.1R cells
T3 construct: Target on H929 or MM.1R BCMA knockout cells, K562 cells expressing human GPRC5D and HEK293 cells of the cell microarray
T3 sequence (Q9NZD1 whole entry): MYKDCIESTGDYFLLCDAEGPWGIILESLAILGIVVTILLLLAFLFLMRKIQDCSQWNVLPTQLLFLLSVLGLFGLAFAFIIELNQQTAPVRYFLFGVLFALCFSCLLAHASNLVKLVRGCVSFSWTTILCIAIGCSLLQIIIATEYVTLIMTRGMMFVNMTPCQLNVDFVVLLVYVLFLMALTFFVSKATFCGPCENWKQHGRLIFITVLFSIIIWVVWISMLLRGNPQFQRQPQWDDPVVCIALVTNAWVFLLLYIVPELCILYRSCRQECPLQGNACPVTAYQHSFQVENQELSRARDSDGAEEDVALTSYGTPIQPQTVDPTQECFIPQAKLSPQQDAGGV

[6] = target: T3, human GPRC5D (G-protein coupled …); assay: cell binding, H929 and MM.1R cells; lower end of the range over H929 and MM.1R cells
[7] = target: T4, human BCMA (B cell maturation antigen, TNFRSF17) on cells (human, UniProt Q02223 1-184); assay: cell binding, H929 and MM.1R cells
T4 construct: whole, on cells; Target on H929 or MM.1R GPRC5D knockout cells, K562 cells expressing human BCMA, HEK293 cells of the cell microarray, and BCMA-only lymphoma lines; also called CD269; surface BCMA
T4 sequence (looked up): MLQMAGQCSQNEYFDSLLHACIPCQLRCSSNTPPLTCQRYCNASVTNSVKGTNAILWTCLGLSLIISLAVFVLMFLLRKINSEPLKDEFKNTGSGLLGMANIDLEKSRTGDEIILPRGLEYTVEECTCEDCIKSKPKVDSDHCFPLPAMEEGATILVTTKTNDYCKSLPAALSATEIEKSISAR

[8] = target: T5, BCMW37 (recombinant human BCMA antigen) (human, UniProt Q02223 1-54, limits assumed); assay: SPR; antigen BCMW37; parental BCMA binder as scFv
T5 construct: also called BCMA BCMW37 chain; human BCMA (SPR antigen)
T5 sequence (looked up): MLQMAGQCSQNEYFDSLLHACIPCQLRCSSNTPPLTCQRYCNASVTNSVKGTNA

[9] = target: T4, human BCMA (B cell maturation antigen, …); assay: cell binding, H929 and MM.1R cells; remark: listed apart in the source
[10] = target: T5, BCMW37 (recombinant human BCMA antigen); assay: SPR
[11] = target: T4, human BCMA (B cell maturation antigen, …); assay: cell-based or functional assay
[12] = target: T3, human GPRC5D (G-protein coupled …); assay: cell-based or functional assay

T1 sequence (Q95LI5 22-198): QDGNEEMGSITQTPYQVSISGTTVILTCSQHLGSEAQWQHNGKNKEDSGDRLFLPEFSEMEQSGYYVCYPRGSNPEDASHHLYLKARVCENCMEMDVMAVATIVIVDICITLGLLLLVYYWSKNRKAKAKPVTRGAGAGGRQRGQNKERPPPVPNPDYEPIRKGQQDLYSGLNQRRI

B1: GCDB381 (CD3B376 Fab in bivalent IgG1-AAS antibody) (antibody, V domains shown)
VH: QVQLQQSGPRLVRPSQTLSLTCAISGDSVFNNNAAWSWIRQSPSRGLEWLGRTYYRSKWLYDYAVSVKSRITVNPDTSRNQFTLQLNSVTPEDTALYYCARGYSSSFDYWGQGTLVTVSS
VL: QSALTQPASVSGSPGQSITISCTGTSSNIGTYKFVSWYQQHPDKAPKVLLYEVSKRPSGVSSRFSGSKSGNTASLTISGLQAEDQADYHCVSYAGSGTLLFGGGTKLTVL
[1]
  binding result: binds
[2]
  EC50 (read off the curve): ~80 nM
[3]
  EC50 (read off the curve): ~70 nM
[4]
  EC50 (read off the curve): ~80 nM

B2: GC5B680 (parental anti-GPRC5D binder, tested as Fab) (Fab, V domains shown)
VH: QVTLKESGPVLVKPTETLTLTCTVSGFSLTNIRMSVSWIRQPPGKALEWLAHIFSNDEKSYSTSLKSRLTISRDTSKSQVVLTLTNVDPVDTATYYCARMRLPYGMDVWGQGTTVTVSS
VL: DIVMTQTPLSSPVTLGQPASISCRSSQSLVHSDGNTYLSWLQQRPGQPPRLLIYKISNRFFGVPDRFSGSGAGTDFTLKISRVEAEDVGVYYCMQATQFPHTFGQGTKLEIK
notes: Tested 'as Fab'; also called GPRC5d lead
[5]
  EC50: 6 to 24 nM
[6]
  EC50: 6 to 24 nM

B3: BCMB519 (parental anti-BCMA binder, tested as scFv) (scFv, V domains shown)
VH: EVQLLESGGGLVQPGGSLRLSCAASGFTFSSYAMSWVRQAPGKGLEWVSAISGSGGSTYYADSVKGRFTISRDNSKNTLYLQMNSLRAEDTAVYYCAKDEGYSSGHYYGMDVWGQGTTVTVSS
VL: EIVLTQSPGTLSLSPGERATLSCRASQSISSSFLTWYQQKPGQAPRLLIYGASSRATGIPDRFSGGGSGTDFTLTISRLEPEDFAVYYCQHYGSSPMYTFGQGTKLEIK
notes: Tested 'as scFv'; also called BCMA lead
[7]
  EC50: 2.3 to 3.2 nM
[8]
  Kd: 0.28 nM
[9]
  EC50: 2.3 to 3.2 nM
[10]
  Kd: 0.28 nM

B4: Teclistamab (BCMA×CD3 bispecific antibody) (bispecific antibody)
chain 1: not shown
chain 2: SYVLTQPPSVSVAPGQTARITCGGNNIGSKSVHWYQQPPGQAPVVVVYDDSDRPSGIPERFSGSNSGNTATLTISRVEAGDEAVYYCQVWDSSSDHVVFGGGTKLTVLGQPKAAPSVTLFPPSSEELQANKATLVCLISDFYPGAVTVAWKGDSSPVKAGVETTTPSKQSNNKYAASSYLSLTPEQWKSHRSYSCQVTHEGSTVEKTVAPTECS
chain 3: EVQLVESGGGLVQPGGSLRLSCAASGFTFNTYAMNWVRQAPGKGLEWVARIRSKYNNYATYYAASVKGRFTISRDDSKNSLYLQMNSLKTEDTAVYYCARHGNFGNSYVSWFAYWGQGTLVTVSSASTKGPSVFPLAPCSRSTSESTAALGCLVKDYFPEPVTVSWNSGALTSGVHTFPAVLQSSGLYSLSSVVTVPSSSLGTKTYTCNVDHKPSNTKVDKRVESKYGPPCPPCPAPEAAGGPSVFLFPPKPKDTLMISRTPEVTCVVVDVSQEDPEVQFNWYVDGVEVHNAKTKPREEQFNSTYRVVSVLTVLHQDWLNGKEYKCKVSNKGLPSSIEKTISKAKGQPREPQVYTLPPSQEEMTKNQVSLTCLVKGFYPSDIAVEWESNGQPENNYKTTPPVLDSDGSFLLYSKLTVDKSRWQEGNVFSCSVMHEALHNHYTQKSLSLSLGK
chain 4: QTVVTQEPSLTVSPGGTVTLTCRSSTGAVTTSNYANWVQQKPGQAPRGLIGGTNKRAPGTPARFSGSLLGGKAALTLSGVQPEDEAEYYCALWYSNLWVFGGGTKLTVLGQPKAAPSVTLFPPSSEELQANKATLVCLISDFYPGAVTVAWKADSSPVKAGVETTTPSKQSNNKYAASSYLSLTPEQWKSHRSYSCQVTHEGSTVEKTVAPTECS
[11]
  CD3 T-cell activation EC50, H929-GPRC5D-KO: 0.253 nM
  CD3 T-cell activation EC50, H929-WT: 0.334 nM
  Cytotoxicity EC50, H929-GPRC5D-KO: 0.198 nM
  Cytotoxicity EC50, H929-WT: 0.275 nM

B5: Talquetamab (GPRC5D×CD3 bispecific antibody) (bispecific antibody)
chain 1: not shown
chain 2: DIQMTQSPSSLSASVGDRVTITCKASQNVATHVGWYQQKPGKAPKRLIYSASYRYSGVPSRFSGSGSGTEFTLTISNLQPEDFATYYCQQYNRYPYTFGQGTKLEIKRTVAAPSVFIFPPSDEQLKSGTASVVCLLNNFYPREAKVQWKVDNALQSGNSQESVTEQDSKDSTYSLSSTLTLSKADYEKHKVYACEVTHQGLSSPVTKSFNRGEC
chain 3: B4 chain 3
chain 4: B4 chain 4
[12]
  CD3 T-cell activation EC50, H929-BCMA-KO: 0.633 nM
  CD3 T-cell activation EC50, H929-WT: 0.233 nM
  Cytotoxicity EC50, H929-BCMA-KO: 0.761 nM
  Cytotoxicity EC50, H929-WT: 0.243 nM
